From PMC6355983, “Structure of the Large Extracellular Loop of FtsX and Its Interaction with the Essential Peptidoglycan Hydrolase PcsB in Streptococcus pneumoniae” (mBio, 2019)

Key:
[1] = biological target: T1, PcsB coiled-coil domain, PscBCC(47–267) (Streptococcus pneumoniae, UniProt A0A0H2US70 47-267); assay: ITC; titration of PscBCC with FtsX_(ECL1) (wild type or L115A M119A); 50 mM potassium phosphate, 50 mM NaCl, 0.5 mM EDTA, pH 7.0, 25.0°C; one-site binding model; conditions: both partners purified
T1 construct: PcsB peptidoglycan hydrolase, Streptococcus pneumoniae, coiled-coil domain, residues 47 to 267; also called PcsB-CC(47–267); His-PscBCC(47–267); source: E. coli strain derived from BL21(DE3)
T1 sequence (looked up): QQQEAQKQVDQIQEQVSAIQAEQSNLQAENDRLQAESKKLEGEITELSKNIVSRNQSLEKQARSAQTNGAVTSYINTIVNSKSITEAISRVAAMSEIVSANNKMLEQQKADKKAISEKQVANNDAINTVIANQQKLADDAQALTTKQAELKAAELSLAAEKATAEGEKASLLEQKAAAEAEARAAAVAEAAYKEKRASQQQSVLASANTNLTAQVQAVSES

PcsB CC = biological target: T2, PcsB CC (Streptococcus pneumoniae, UniProt A0A0H2ZQ76); assay: ITC; given as Ka
T2 chain: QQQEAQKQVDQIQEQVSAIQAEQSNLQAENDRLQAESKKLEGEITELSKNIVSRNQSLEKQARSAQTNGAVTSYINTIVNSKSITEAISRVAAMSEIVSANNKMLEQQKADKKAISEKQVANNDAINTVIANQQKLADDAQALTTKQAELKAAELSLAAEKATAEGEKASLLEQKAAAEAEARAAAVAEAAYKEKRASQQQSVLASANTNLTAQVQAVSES

Binder | Ka [1] [M⁻¹] | Kd [1] [µM] | dH [1] [kcal/mol] | Kd (PcsB CC) [µM]
FtsX large extracellular loop 1 (FtsX_(ECL1)), residues 46 to 168 (domain or fragment, Streptococcus pneumoniae, UniProt Q04LE4 46-168, looked up, FtsX, Streptococcus pneumoniae, large extracellular loop (ECL1), residues 46 to 168; Uniformly 15N-labelled when observed by NMR, unlabelled when added to 15N PcsBCC(47-254) and in ITC; also called wild-type (WT) FtsX_(ECL1); Spn ECL1; source: E. coli strain derived from BL21(DE3); LB or M9 minimal medium with 15NH4Cl) NTAKLATDIENNVRVVVYIRKDVEDNSQTIEKEGQTVTNNDYHKVYDSLKNMSTVKSVTFSSKEEQYEKLTEIMGDNWKIFEGDANPLYDAYIVEANAPNDVKTIAEDAKKIEGVSEVQDGGA | 30000 | 34 ± 6 | -2.1 ± 0.2 | –
FtsX ECL1 (protein) TAKLATDIENNVRVVVYIRKDVEDNSQTIEKEGQTVTNNDYHKVYDSLKNMSTVKSVTFSSKEEQYEKLTEIMGDNWKIFEGDANPLYDAYIVEANAPNDVKTIAEDAKKIEGVSEVQDGGA | – | – | – | 33.3
